Data on 29 sequences can be found in the supplement of paper PMC9170038.

Series [1] concerns MS2 coat protein. The series can be described thus: apparent KD of MS2 coat protein, switch ON state; designed switch direction (-1 OFF switch, 1 ON switch): 1; higher = weaker reporter binding. To be noted: FMN input: 0 or 200 uM; Eterna round: R93 (includes R88 designs). Put shortly:
(§1)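 The designed RNA switches were transcribed on-chip from Illumina sequencing clusters. In 100 mM Tris-HCl pH 7.5, 80 mM KCl and 4 mM MgCl2, without or with constant ligand, they were titrated with SNAP-549-labelled MS2 coat protein from 0.7 or 1.5 nM to 3 µM in twofold steps. Apparent KD is the per-design median of normalised cluster binding-curve fits.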

The subject of series [2] is MS2 coat protein. The series can be described thus: apparent KD of MS2 coat protein, switch OFF state (with FMN for OFF switches, without FMN for ON switches); designed switch direction (-1 OFF switch, 1 ON switch): 1; higher = weaker reporter binding. To be noted: FMN input: 0 or 200 uM; Eterna round: R93 (includes R88 designs). Put shortly: as §1

Take “AAAAGACAUGAGGAUCACCCAUGUCAAGACAUAGGAGGAUAUGUCGUGAAAAAAGACUUGGCAGAAGGCCUUUGUC [SS1 - 47]”: the “apparent KD of MS2 coat protein” value was found to be 14.3 nM in series [1] and 16.1 nM in series [2].
For the sequence “AAAAGACAUGAGGAUCACCCAUGUCGAAAGACAUGAGGAUAUGUACAGACUUCGGUCUGUACAGAAGGCAUGAAAA [SS1 - 1067]”, the “apparent KD of MS2 coat protein” value was 17.1 nM in series [1] and 68.7 nM in series [2].
Regarding “AAAAGACAUGAGGAUCACCCAUGUCGAAAGACAUGAGGAUAUGUACAGACUUCGGUCUGUACAGAAGGCAUGUAAA [SS1 - 1068]”, the “apparent KD of MS2 coat protein” value in series [1] was 16.7 nM; in series [2] it was 50.3 nM.
Consider “AAAAGACAUGAGGAUCACCCAUGUCUUCGGACAUGAGGAUAUGUACAGACUUCGGUCUGUACAGAAGGCAUGAAAA [SS1 - 1065]”, for which the “apparent KD of MS2 coat protein” value is 18.5 nM in series [1] and 48.3 nM in series [2].
Take “AAAAUAAAAAGGCAGGAUAUCCAAAAUAAAACAUGAGGAUCACCCAUGUAAAUAAAAAUAAAGUGGGAGAAGGGUUAAAAAUAAAA [High Roller3]”: the “apparent KD of MS2 coat protein” value in series [1] is 32.5 nM; in series [2], 46.8 nM.
Take “AAAAUAAAAUAAAAGGAUAUAAAAAAAUAUACAUGAGGAUCACCCAUGUAUAUAAAAAUAAAAUAAAAGAAGGAAUAAAAAUAAA [SS2 506: MS2 6]”: the “apparent KD of MS2 coat protein” value in series [1] is 10.3 nM; in series [2], 11.1 nM.
Consider “AAAAUACAUGAGGAUCACCCAUGUGAAAAUAUGGAAGGAUAUACGAAAAAUAAAUAAAACGUAGAAGGUCUAAAAA [SS! 1 MT 3]”, for which the entries for the “apparent KD of MS2 coat protein” value in series [1] and in series [2] were 23.8 nM and 38.4 nM, respectively.
With “AAAAUACAUGAGGAUCACCCAUGUGAAAAUAUGGAAGGAUAUCAAUGCAAAAAAAAGCAUUGAGAAGGUCCAAAAA [SS! 1 MT 8]”, the “apparent KD of MS2 coat protein” value in series [1] came out at 16.7 nM; in series [2] it was 26.9 nM.
For “AAAAUACAUGAGGAUCACCCAUGUGAAAAUAUGGGAGGAUAUCAUGGAAAAAAAAAAACAUGAGAAGGCCCAAAAA [SS! 1 MT 10]” the same measures were 24.8 nM and 104 nM.
For “AAAAUACAUGAGGAUCACCCAUGUGAGAAAAACGCAGGAUAUGCAAAAAAAAAAAAAAAAGCAGAAGGGUGAAAAA [SameState1-I]”, the “apparent KD of MS2 coat protein” value came to 54.8 nM in series [1] and 103 nM in series [2].
For the sequence “AAACAGCACAGGUAGGAUAUGUAGGGUGGUACAUGAGGAUCACCCAUGUAUCCACCCUUCGAAAGGCAGAAGGGCCUGCCGCUGC [Cealaes]”, the “apparent KD of MS2 coat protein” value was 15.4 nM in series [1] and 16.6 nM in series [2].
For “AAACCACAUGAGGAUCACCCAUGUAAAAUAUACAUAGGAUAUGCGAAAAGAAACAAAGAAGCAGAAGGGUGAAAAA [75%, Ex sub1, 16]”, the “apparent KD of MS2 coat protein” value in series [1] worked out at 36.4 nM; in series [2], 32.1 nM.
In the case of “AAACCACAUGAGGAUCACCCAUGUAAAAUUAUGGGAGGAUAUACUAGAAGAAACAAAAUAGUAGAAGGCCUAAAAA [75%, Ex sub1, 33]”, the “apparent KD of MS2 coat protein” value in series [1] amounted to 15.9 nM; in series [2], 74.2 nM.
With “AAACCACAUGAGGAUCACCCAUGUAAGAUAUACAUAGGAUAUGCGAAAAGAAACAAAGAAGCAGAAGGGUGAAAAA [75%, Ex sub1, 14]”, the results for the “apparent KD of MS2 coat protein” value in series [1] and in series [2] were 172 nM and 72.8 nM, respectively.
Consider “AAACCACAUGAGGAUCACCCAUGUAGAAAUAUGGGAGGAUAUACGAAAACGAAAGUCAAAGUAGAAGGCCUAAAAG [saturn 2]”, for which the “apparent KD of MS2 coat protein” value came to 36.7 nM in series [1] and 129 nM in series [2].
On to “AAACCACAUGAGGAUCACCCAUGUCAAGAGAGACUAGGAUAUCUGAAUUAAUUAAAUUAAGGAGAAGGAGUGAAAA [71%, Same state of confusion2, 3]”, for which the “apparent KD of MS2 coat protein” value in series [1] worked out at 52.8 nM; in series [2] it was 179 nM.
In the case of “AAACCACAUGAGGAUCACCCAUGUGUAAAAAAUACAGGAUAUGGAAACACGAAAGUGAAACCAGAAGGGUGAAAAA [77%, Mat - Mod of Eli, 30]”, the “apparent KD of MS2 coat protein” value was determined as 19 nM in series [1] and 24.3 nM in series [2].
As to “AAACCACAUGAGGAUCACCCAUGUGUAAAAAAUACAGGAUAUGGAAACACGAAAGUGAAACCAGAAGGGUGGAAAA [77%, Mat - Mod of Eli, 29]”, the results for the “apparent KD of MS2 coat protein” value in series [1] and in series [2] were 31.6 nM and 28.3 nM, respectively.
“AAAGAAAAACUAGAGGAUAUCCAAGUGGUAACAUGAGGAUCACCCAUGUGAAGAAAGGAGCAUGAGGAGAAGGCUAGAAGAAAAA [JL Nando mod 25]”: the “apparent KD of MS2 coat protein” value in series [1] stood at 19.2 nM; in series [2], 82.3 nM.
In the case of “AAAGAAAAACUAGAGGAUAUCCGAGUGGUAACAUGAGGAUCACCCAUGUGAAGAAAGGAACAUAUGGAGAAGGCUAGAAGAAAAA [JL Nando Mod 4]”, the “apparent KD of MS2 coat protein” value in series [1] came to 63.5 nM; in series [2], 438 nM.
For “AAAGAAAAACUAGAGGAUAUCUGAAUGAUAACAUGAGGAUCACCCAUGUGAAGAAAGGAAUAUGAGGAGAAGGCUAGAAGAAAAA [JL Nando mod 19]” the same measures were 33.9 nM and 44.9 nM.
As to “AAAGAAAAACUAGAGGAUAUCUGAGUGGUAACAUGAGGAUCACCCAUGUGAAGAAAGGAACAUGAGGAGAAGGCUAGAAGAAAAA [JL Nando mod 13]”, the “apparent KD of MS2 coat protein” value in series [1] was 23.8 nM; in series [2], 44.2 nM.
Take “AAAGAAAAACUAGAGGAUAUUUGAGUGGUAACAUGAGGAUCACCCAUGUGAAGAAAAGAACAUGAGGAGAAGGCUAGAAGAAAAA [JL Nando mod 15]”: the figures for the “apparent KD of MS2 coat protein” value in series [1] and in series [2] were 23.1 nM and 42.3 nM, respectively.
For “AAAGAAAAACUAGAGGAUAUUUGAGUGGUAACAUGAGGAUCACCCAUGUGAAGAAAGGAGCAUGAGGAGAAGGCUAGAAGAAAAA [JL Nando mod 23]” the same measures were 21.5 nM and 68.7 nM.
“AAAGACACAGUGCAGGAUAUGGUAAUAGUCACAUGAGGAUCACCCAUGUUCUUUUAUAAGAACGAUCAGAAGGGCGGUGAAAAAA [SameState2 Malc#12]”: the “apparent KD of MS2 coat protein” value is 111 nM in series [1] and 295 nM in series [2].
For “AAAUAAAAAAAAGAGGAUAUUCAUGUGAAAACAUGAGGAUCACCCAUGUAAAAAAAUAAAAAUAAAAAGAAGGAAAAAUAAAAAA [SS2: 83 No MS2]”, the “apparent KD of MS2 coat protein” value in series [1] stood at 23.6 nM; in series [2] it was 25.1 nM.
For “AAAUAAAAAAGGGAGGAUAUUCAUGUGAAAACAUGAGGAUCACCCAUGUAAAAAAAUAAAAAUAAAAAGAAGGAAAAAUAAAAAA [SS2: 80 No MS2]”, the entries for the “apparent KD of MS2 coat protein” value in series [1] and in series [2] were 6.62 nM and 151 nM, respectively.
For “AAAUAAAGGACUGAGGAUAUACCACAUGAAACAUGAGGAUCACCCAUGUUGAAAAACAAAGGGUGGUAGAAGGCAGUCCACAAAC [Same State 2.5c ( so lets mod hyphema)]” the same measures were 10.7 nM and 14.1 nM.
Consider “AAAUAAAGGACUGAGGAUAUACCACAUGAAACAUGAGGAUCACCCAUGUUGAAAAACAGAGGGUGGUAGAAGGUAGUCCACAAAC [Same State 2.5b ( so lets mod hyphema)]”, for which the “apparent KD of MS2 coat protein” value in series [1] turned out to be 21.4 nM; in series [2] it was 51.3 nM.
